The values below come from publication PMC9709975, “Chromatin-associated microprocessor assembly is regulated by the U1 snRNP auxiliary protein PRP40” (The Plant Cell, 2022).

The assay deals with T1, PRE-MRNA PROCESSING PROTEIN 40b (AtPRP40b), recombinant (Arabidopsis thaliana, UniProt F4JCC1 1-992).
T1 construct: AtPRP40b, Arabidopsis thaliana U1 snRNP auxiliary protein; Made as MBP-6xHis-AtPRP40b from a pMal-derived plasmid; MBP cut off with TEV protease; Detected with anti-PRP40b; source: E. coli BL21-CodonPlus(DE3)-RIL, purified (Ni-NTA, TEV cleavage, second Ni-NTA, size exclusion chromatography); not shown: MBP, N-terminal, cleaved
T1 sequence (looked up): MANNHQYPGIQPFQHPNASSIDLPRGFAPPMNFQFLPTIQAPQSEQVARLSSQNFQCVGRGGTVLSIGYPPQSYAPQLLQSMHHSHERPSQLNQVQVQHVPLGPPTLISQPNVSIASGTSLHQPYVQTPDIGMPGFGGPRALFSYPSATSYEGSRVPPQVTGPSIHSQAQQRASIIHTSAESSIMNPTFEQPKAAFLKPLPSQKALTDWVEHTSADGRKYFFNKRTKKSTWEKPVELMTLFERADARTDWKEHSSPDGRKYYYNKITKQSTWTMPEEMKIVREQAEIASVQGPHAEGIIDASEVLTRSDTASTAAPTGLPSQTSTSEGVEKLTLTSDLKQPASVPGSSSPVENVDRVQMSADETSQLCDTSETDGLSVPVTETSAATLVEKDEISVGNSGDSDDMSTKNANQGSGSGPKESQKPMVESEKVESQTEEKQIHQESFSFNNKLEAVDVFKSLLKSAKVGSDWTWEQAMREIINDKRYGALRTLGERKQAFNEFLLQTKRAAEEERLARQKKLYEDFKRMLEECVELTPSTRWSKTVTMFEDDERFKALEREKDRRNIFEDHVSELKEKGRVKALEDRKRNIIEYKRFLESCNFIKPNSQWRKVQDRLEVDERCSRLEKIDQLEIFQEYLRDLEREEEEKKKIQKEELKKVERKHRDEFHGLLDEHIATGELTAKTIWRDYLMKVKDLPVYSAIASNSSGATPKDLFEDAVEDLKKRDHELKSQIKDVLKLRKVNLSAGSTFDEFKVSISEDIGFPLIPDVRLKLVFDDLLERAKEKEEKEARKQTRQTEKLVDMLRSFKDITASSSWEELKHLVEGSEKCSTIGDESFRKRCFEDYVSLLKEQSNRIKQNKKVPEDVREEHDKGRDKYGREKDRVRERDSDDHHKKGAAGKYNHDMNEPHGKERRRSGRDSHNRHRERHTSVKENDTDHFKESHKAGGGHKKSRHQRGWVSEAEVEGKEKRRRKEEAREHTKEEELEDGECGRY
In words: pull-down; 2 µg biotinylated CTD peptide on streptavidin paramagnetic particles; 2 µg of SE variant and AtPRP40b together; 1.5 h at 4°C in PBS pH 8.3, 5% glycerol, 1 mM DTT, 0.1% NP-40; five washes, immunoblot. The following applies: both partners purified.

B1: SERRATE (SE), full length, recombinant (natural protein, Arabidopsis thaliana, UniProt Q9ZVD0 1-720, looked up)
chain: MADVNLPPSDSVDNRLPEKSTSSSPPPPPPSSSLPQQEQEQDQQQLPLRRERDSRERRDERDIERPPPNRRERDRSPLPPPRRDYKRRPSLSPPPPYRDRRHSPPQRRSPPQKRYRRDDNGYDGRRGSPRGGYGPPDRRFGYDHGGGYDREMGGRPGYGDERPHGRFMGRYQDWEGGRGGYGDASNSGNPQRDGLMSYKQFIQELEDDILPSEAERRYQEYKSEYITTQKRAFFNTHKEEDWLKNKYHPTNLLSVIERRNDLAQKVAKDFLLDLQSGTLDLGPAVTALNKSGRTSEPNSEDEAAGVGKRKRHGMGGAKENELLSAAPKAPSFTSDPKRILTDVEQTQALVRKLDSEKKIEENVLQGSETEKSGREKLHSGSTGPVVIIRGLTSVKGLEGVELLDTLVTYLWRVHGLDYYGKVETNEAKGLRHVRAEGKVSDAKGDENESKFDSHWQERLKGQDPLEVMAAKEKIDAAATEALDPHVRKIRDEKYGWKYGCGAKGCTKLFHAAEFVYKHLKLKHTELVTELTTKVREELYFQNYMNDPNAPGGQPATQQSGPRDRPIRRKPSMENRLRDDRGGRRERDGRANGNDRNDRSEDQQRGDNDGGNPGEVGYDAFGGQGGVHVPPFLSDINPPPMLMPVPGAGPLGPFVPAPPEVAMQMFRDPSGPNPPFEGSGRGGPAPFLLSPAFRQDPRRLRSYQDLDAPEEEVTVIDYRSL
notes: SERRATE, Arabidopsis thaliana, core component of the plant microprocessor; full length (720 residues by the printed deletion Δ681-720); Made as MBP-6xHis-SE from a pMal-derived plasmid; MBP cut off with TEV protease; source: E. coli BL21-CodonPlus(DE3)-RIL, purified (Ni-NTA, TEV cleavage, second Ni-NTA, size exclusion chromatography); not shown: MBP, N-terminal, cleaved
In the case of B1, the binding result is on record as “binds”.
